# Laboratory results published in US20060177440A1 (published 2006).
# T1: human Rh(D) antigen (human, UniProt Q02161 2-417)
# T1 construct: whole, on cells; also called wt; wild-type Rh(D) on Rh(D)-positive RBCs
# T1 sequence (looked up): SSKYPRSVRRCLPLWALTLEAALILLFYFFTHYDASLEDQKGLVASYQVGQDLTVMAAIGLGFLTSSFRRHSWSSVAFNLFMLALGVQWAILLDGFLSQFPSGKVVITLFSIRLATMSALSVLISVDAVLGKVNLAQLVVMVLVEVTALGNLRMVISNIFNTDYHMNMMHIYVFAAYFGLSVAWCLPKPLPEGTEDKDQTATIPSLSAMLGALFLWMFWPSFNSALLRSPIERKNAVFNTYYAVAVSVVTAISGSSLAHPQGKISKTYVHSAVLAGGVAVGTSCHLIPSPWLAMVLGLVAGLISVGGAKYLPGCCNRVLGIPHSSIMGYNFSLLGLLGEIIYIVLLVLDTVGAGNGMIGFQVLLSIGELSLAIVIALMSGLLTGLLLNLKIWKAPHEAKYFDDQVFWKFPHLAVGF
# Biological target: T1, human Rh(D) antigen
# Assay: Fab/phage agglutination (anti-M13)
# Procedure: Following a one-hour incubation at 37° C., the RBCs were washed 3 times with 2 ml of cold PBS to remove unbound antibody. The resulting RBC pellets were resuspended in 100 μl of a 10 μg/ml solution of sheep anti-M13 antibody (5 Prime-3 Prime, Boulder, Colo.) for Fab/phage experiments or goat anti-human κ or λ light chain antibody (Tago, Burlingame, Calif.) for γ₁κ or γ₁λ soluble Fab experiments, respectively. The RBC suspensions were transferred to the round-bottomed wells of a 96-well microplate and left undisturbed for […]. Negative reactions show sharp ˜2 millimeter diameter RBC spots whereas the RBCs in agglutinated wells form a thin carpet coating the entire floor of the well (Siegel et al., 1997, J. Immunol. Meth. 206:73). Agglutination titers for recombinant antibodies were determined by performing serial 2-fold dilutions in 1% BSA/PBS.
# Fifty-six randomly chosen colonies were selected, and monoclonal Fab/phage preparations were separately produced from each of these individual colonies, using the methods described herein in Example 1. Rh(D) specificity was determined by indirect agglutination using anti-M13 antibody, as described herein in Examples 1 and 2.
row,Binder,binding result
1,"SH17 (Fab, V domains shown, Fab/phage) VH: EVQLLESGGGLVQPGGSLRLSCGASGIPFVSSWMAWVRQAPGKGLEWVANIKQDGSKKNYVDSVEGRFTISRDNAKNSLYLQMDSLRAEDTRIYYCARDSLTCFDYWGQGALVTVSS VL: AELQDPVVSVALGQTVRITCQGDGLRSYYASWYQQKPGQAPKLVMYGRNNRPSGIPGRFSGSSSGQTAALTITGTQAEDEADYYCQSRATSGNPVVFGGGTKLTVL",binds
2,"SH13 (Fab, V domains shown, Fab/phage) VH: EVQLLESGGGVVQPGRSLRLSCAASGFTFSSYGMHWVRQAPGKGLEWVAVVYYDGSNKHYSDSVKGRFTISRDNSKNTLYLQMDSLRAEDTAVYYCARERNFRSGYSRYYYGMDVWGPGTTVTVSS VL: not shown",binds
3,"SH56 (Fab, V domains shown, Fab/phage) VH: EVQLLESGGGVVQPGRSLRLSCAASGFTFSSYGMHWVRQAPGKGLEWVAVVYYDGSNKHYSDSVKGRFTIFRDNSKNTLYLQMDSLRAEDTAVYYCARERNFRSGYSRYYYGMDVWGPGTTVTVSS VL: AELTQSPSSLSASVGDRVTITCRASQSISRYLNWYQQKPGKAPKLLIYAASSLQSGVPSRFSGSGSGTDFALTISSLLPEDFATYYCQQGYSTPPYSFGQGTKLEIKR",binds
